Results reported in patent US20250388669A1 (published 2025).

B1: Ly1612 (antibody, V domains shown)
VH: QVQLVQSGAEVKKPGASVKVSCKASGYTFTSYVMHWVRQKPGQGLEWIGYINPYNEGTESTDKFKGRATMTSDKSTSTVYMELSSLRSEDTAVYYCASIYYGYEGTYFGVWGQGTLVTVSS
VL: EIVLTQSPATLSLSPGERATLSCRASSSVSYMHWYQQKPGQAPRPWIYATSNLASGIPARFSGSRSGTDYTLTISSLEPEDFAVYYCQQWSSNTLTFGGGTKVEIK
notes: Parent mAb; also called Anti-B7H3 Ly1612; B7H3 mAb
B2: Ly2364 (other)
chain 1: QVQLVQSGAEVKKPGASVKVSCKASGYTFTSYVMHWVRQKPGQGLEWIGYINPYNEGTESTDKFKGRATMTSDKSTSTVYMELSSLRSEDTAVYYCASIYYGYEGTYFGVWGQGTLVTVSSASTKGPSVFPLAPSSKSTSGGTAALGCLVKDYFPEPVTVSWNSGALTSGVHTFPAVLQSSGLYSLSSVVTVPSSSLGTQTYICNVNHKPSNTKVDKKVEPKSCGGGGSGGGGSGGGGSGGGGSGGGGSEVQLVESGGGLVQPGGSLRLSCAASGFTFSTYAMNWVRQAPGKGLEWVGRIRSKYNNYATYYADSVKGRFTISRDDSKNSLYLQMNSLKTEDTAVYYCVRHGNFGNSYVSWFAYWGQGTLVTVSSGGGGSDKTHTCPPCPAPEAAGPSVFLFPPKPKDTLMISRTPEVTCVVVDVSHEDPEVKFNWYVDGVEVHNAKTKPREEQYNSTYRVVSVLTVLHQDWLNGKEYKCKVSNKALPAPIEKTISKAKGQPREPQVYTLPPSREEMTKNQVSLWCLVKGFYPSDIAVEWESNGQPENNYKTTPPVLDSDGSFFLYSKLTVDKSRWQQGNVFSCSVMHEALHNHYTQKSLSLSPGGGGGSGGGGSGGGGSGGGGSQVQLVQSGAEVKKPGASVKVSCKASGYTFAGFEMHWVRQAPGQGLEWMGAIDPKTGGTDYNQKFKDRVTMTRDTSISTAYMELSRLRSDDTAVYYCARDLGYFDVWGQGTLVTVSS
chain 2: QVQLVQSGAEVKKPGASVKVSCKASGYTFTSYVMHWVRQKPGQGLEWIGYINPYNEGTESTDKFKGRATMTSDKSTSTVYMELSSLRSEDTAVYYCASIYYGYEGTYFGVWGQGTLVTVSSASTKGPSVFPLAPSSKSTSGGTAALGCLVKDYFPEPVTVSWNSGALTSGVHTFPAVLQSSGLYSLSSVVTVPSSSLGTQTYICNVNHKPSNTKVDKKVEPKSCGGGGSGGGGSGGGGSGGGGSGGGGSQAVVTQEPSLTVSPGGTVTLTCRSSTGAVTTSNYANWVQQKPGQAPRGLIGGTNKRAPWTPARFSGSLLGGKAALTITGAQAEDEADYYCALWYSNLWVFGGGTKLTVLGGGGSDKTHTCPPCPAPEAAGPSVFLFPPKPKDTLMISRTPEVTCVVVDVSHEDPEVKFNWYVDGVEVHNAKTKPREEQYNSTYRVVSVLTVLHQDWLNGKEYKCKVSNKALPAPIEKTISKAKGQPREPQVYTLPPSREEMTKNQVSLSCAVKGFYPSDIAVEWESNGQPENNYKTTPPVLDSDGSFFLVSKLTVDKSRWQQGNVFSCSVMHEALHNRFTQKSLSLSPGGGGGSGGGGSGGGGSGGGGSDIQMTQSPSSLSASVGDRVTITCRASQDIRSNLNWYQQKPGGAVKLLIYYTSRLHSGVPSRFSGSGSGTDYTLTISSLQPEDFATYFCQQSEKLPRTFGGGTKVEIR
light: EIVLTQSPATLSLSPGERATLSCRASSSVSYMHWYQQKPGQAPRPWIYATSNLASGIPARFSGSRSGTDYTLTISSLEPEDFAVYYCQQWSSNTLTFGGGTKVEIKRTVAAPSVFIFPPSDEQLKSGTASVVCLLNNFYPREAKVQWKVDNALQSGNSQESVTEQDSKDSTYSLSSTLTLSKADYEKHKVYACEVTHQGLSSPVTKSFNRGEC
notes: Tri-specific antibody: B7H3 Fabs, central CD3 Fv, terminal CD137 Fv; Flexible linker is (G4S)5
B3: Ly2365 (other)
chain 1: QVQLVQSGAEVKKPGASVKVSCKASGYTFTSYVMHWVRQKPGQGLEWIGYINPYNEGTESTDKFKGRATMTSDKSTSTVYMELSSLRSEDTAVYYCASIYYGYEGTYFGVWGQGTLVTVSSASTKGPSVFPLAPSSKSTSGGTAALGCLVKDYFPEPVTVSWNSGALTSGVHTFPAVLQSSGLYSLSSVVTVPSSSLGTQTYICNVNHKPSNTKVDKKVEPKSCGGGGSGGGGSGGGGSEVQLVESGGGLVQPGGSLRLSCAASGFTFSTYAMNWVRQAPGKGLEWVGRIRSKYNNYATYYADSVKGRFTISRDDSKNSLYLQMNSLKTEDTAVYYCVRHGNFGNSYVSWFAYWGQGTLVTVSSGGGGSDKTHTCPPCPAPEAAGPSVFLFPPKPKDTLMISRTPEVTCVVVDVSHEDPEVKFNWYVDGVEVHNAKTKPREEQYNSTYRVVSVLTVLHQDWLNGKEYKCKVSNKALPAPIEKTISKAKGQPREPQVYTLPPSREEMTKNQVSLWCLVKGFYPSDIAVEWESNGQPENNYKTTPPVLDSDGSFFLYSKLTVDKSRWQQGNVFSCSVMHEALHNHYTQKSLSLSPGGGGGSGGGGSGGGGSGGGGSQVQLVQSGAEVKKPGASVKVSCKASGYTFAGFEMHWVRQAPGQGLEWMGAIDPKTGGTDYNQKFKDRVTMTRDTSISTAYMELSRLRSDDTAVYYCARDLGYFDVWGQGTLVTVSS
chain 2: QVQLVQSGAEVKKPGASVKVSCKASGYTFTSYVMHWVRQKPGQGLEWIGYINPYNEGTESTDKFKGRATMTSDKSTSTVYMELSSLRSEDTAVYYCASIYYGYEGTYFGVWGQGTLVTVSSASTKGPSVFPLAPSSKSTSGGTAALGCLVKDYFPEPVTVSWNSGALTSGVHTFPAVLQSSGLYSLSSVVTVPSSSLGTQTYICNVNHKPSNTKVDKKVEPKSCGGGGSGGGGSGGGGSQAVVTQEPSLTVSPGGTVTLTCRSSTGAVTTSNYANWVQQKPGQAPRGLIGGTNKRAPWTPARFSGSLLGGKAALTITGAQAEDEADYYCALWYSNLWVFGGGTKLTVLGGGGSDKTHTCPPCPAPEAAGPSVFLFPPKPKDTLMISRTPEVTCVVVDVSHEDPEVKFNWYVDGVEVHNAKTKPREEQYNSTYRVVSVLTVLHQDWLNGKEYKCKVSNKALPAPIEKTISKAKGQPREPQVYTLPPSREEMTKNQVSLSCAVKGFYPSDIAVEWESNGQPENNYKTTPPVLDSDGSFFLVSKLTVDKSRWQQGNVFSCSVMHEALHNRFTQKSLSLSPGGGGGSGGGGSGGGGSGGGGSDIQMTQSPSSLSASVGDRVTITCRASQDIRSNLNWYQQKPGGAVKLLIYYTSRLHSGVPSRFSGSGSGTDYTLTISSLQPEDFATYFCQQSEKLPRTFGGGTKVEIR
light: B2 light
notes: Tri-specific antibody: B7H3 Fabs, central CD3 Fv, terminal CD137 Fv; Flexible linker is (G4S)3
B4: Ly2366 (other)
chain 1: QVQLVQSGAEVKKPGASVKVSCKASGYTFTSYVMHWVRQKPGQGLEWIGYINPYNEGTESTDKFKGRATMTSDKSTSTVYMELSSLRSEDTAVYYCASIYYGYEGTYFGVWGQGTLVTVSSASTKGPSVFPLAPSSKSTSGGTAALGCLVKDYFPEPVTVSWNSGALTSGVHTFPAVLQSSGLYSLSSVVTVPSSSLGTQTYICNVNHKPSNTKVDKKVEPKSCGGGGSGGGGSEVQLVESGGGLVQPGGSLRLSCAASGFTFSTYAMNWVRQAPGKGLEWVGRIRSKYNNYATYYADSVKGRFTISRDDSKNSLYLQMNSLKTEDTAVYYCVRHGNFGNSYVSWFAYWGQGTLVTVSSGGGGSDKTHTCPPCPAPEAAGPSVFLFPPKPKDTLMISRTPEVTCVVVDVSHEDPEVKFNWYVDGVEVHNAKTKPREEQYNSTYRVVSVLTVLHQDWLNGKEYKCKVSNKALPAPIEKTISKAKGQPREPQVYTLPPSREEMTKNQVSLWCLVKGFYPSDIAVEWESNGQPENNYKTTPPVLDSDGSFFLYSKLTVDKSRWQQGNVFSCSVMHEALHNHYTQKSLSLSPGGGGGSGGGGSGGGGSGGGGSQVQLVQSGAEVKKPGASVKVSCKASGYTFAGFEMHWVRQAPGQGLEWMGAIDPKTGGTDYNQKFKDRVTMTRDTSISTAYMELSRLRSDDTAVYYCARDLGYFDVWGQGTLVTVSS
chain 2: QVQLVQSGAEVKKPGASVKVSCKASGYTFTSYVMHWVRQKPGQGLEWIGYINPYNEGTESTDKFKGRATMTSDKSTSTVYMELSSLRSEDTAVYYCASIYYGYEGTYFGVWGQGTLVTVSSASTKGPSVFPLAPSSKSTSGGTAALGCLVKDYFPEPVTVSWNSGALTSGVHTFPAVLQSSGLYSLSSVVTVPSSSLGTQTYICNVNHKPSNTKVDKKVEPKSCGGGGSGGGGSQAVVTQEPSLTVSPGGTVTLTCRSSTGAVTTSNYANWVQQKPGQAPRGLIGGTNKRAPWTPARFSGSLLGGKAALTITGAQAEDEADYYCALWYSNLWVFGGGTKLTVLGGGGSDKTHTCPPCPAPEAAGPSVFLFPPKPKDTLMISRTPEVTCVVVDVSHEDPEVKFNWYVDGVEVHNAKTKPREEQYNSTYRVVSVLTVLHQDWLNGKEYKCKVSNKALPAPIEKTISKAKGQPREPQVYTLPPSREEMTKNQVSLSCAVKGFYPSDIAVEWESNGQPENNYKTTPPVLDSDGSFFLVSKLTVDKSRWQQGNVFSCSVMHEALHNRFTQKSLSLSPGGGGGSGGGGSGGGGSGGGGSDIQMTQSPSSLSASVGDRVTITCRASQDIRSNLNWYQQKPGGAVKLLIYYTSRLHSGVPSRFSGSGSGTDYTLTISSLQPEDFATYFCQQSEKLPRTFGGGTKVEIR
light: B2 light
notes: Tri-specific antibody: B7H3 Fabs, central CD3 Fv, terminal CD137 Fv; Flexible linker is (G4S)2

target: T1, B7H3 (human, UniProt Q5ZPR3 29-466, limits assumed); assay: ELISA or FCM (Example 2)
T1 sequence (looked up): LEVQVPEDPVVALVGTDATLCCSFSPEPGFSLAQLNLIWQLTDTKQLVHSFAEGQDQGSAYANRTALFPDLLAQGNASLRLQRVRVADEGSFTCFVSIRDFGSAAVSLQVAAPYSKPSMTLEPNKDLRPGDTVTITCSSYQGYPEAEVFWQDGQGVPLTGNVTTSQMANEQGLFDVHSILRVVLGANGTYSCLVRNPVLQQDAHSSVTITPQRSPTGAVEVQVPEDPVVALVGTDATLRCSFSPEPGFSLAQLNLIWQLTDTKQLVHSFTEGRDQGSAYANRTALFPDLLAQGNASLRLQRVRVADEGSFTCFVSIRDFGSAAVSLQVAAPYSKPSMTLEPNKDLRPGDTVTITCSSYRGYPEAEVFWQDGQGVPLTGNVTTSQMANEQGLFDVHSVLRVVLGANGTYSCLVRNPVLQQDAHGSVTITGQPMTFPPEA

Binder | binding result
B1 | binds
B2 | binds
B3 | binds
B4 | binds
